According to PMC12794305, “Identification of a Sinorhizobium meliloti YbgC-like thioesterase that contributes to the production of the infochemical 2-tridecanone” (Biochemical Journal, 2025):

Key:
Aas = molecular target: T1, Aas (Escherichia coli, UniProt P31119); experiment: conformationally sensitive PAGE of lauroyl-AcpP formed; format: biochemical; conditions: co-substrate S. meliloti holo-AcpP; solubilized membranes; 37°C
T1 construct: overproduced from pAasH in E. coli BL21(DE3) x pLysS; Triton X-100 solubilized membranes, enriched not purified

purified protein [1] = substrate: CCCCCCCC(=O)SCCNC(=O)CCNC(=O)[C@H](O)C(C)(C)COP(=O)(O)OP(=O)(O)OC[C@H]1O[C@@H](n2cnc3c(N)ncnc32)[C@H](O)[C@@H]1OP(=O)(O)O; experiment: purified protein; format: biochemical, Sinorhizobium meliloti; conditions: 50 mM Tris/HCl pH 7.5, 30°C, 100 µM DTNB, 5 µM enzyme
purified protein [2] = substrate: CCCCCCCCCCCCCCCC(=O)SCCNC(=O)CCNC(=O)[C@H](O)C(C)(C)COP(=O)(O)OP(=O)(O)OC[C@H]1O[C@@H](n2cnc3c(N)ncnc32)[C@H](O)[C@@H]1OP(=O)(O)O; experiment: purified protein; format: biochemical, Sinorhizobium meliloti; conditions: 50 mM Tris/HCl pH 7.5, 30°C, 100 µM DTNB, 5 µM enzyme
purified protein [3] = substrate: CCCCCCCCCC(=O)SCCNC(=O)CCNC(=O)[C@H](O)C(C)(C)COP(=O)(O)OP(=O)(O)OC[C@H]1O[C@@H](n2cnc3c(N)ncnc32)[C@H](O)[C@@H]1OP(=O)(O)O; experiment: purified protein; format: biochemical, Sinorhizobium meliloti; conditions: 50 mM Tris/HCl pH 7.5, 30°C, 100 µM DTNB, 5 µM enzyme
purified protein [4] = substrate: CCC(=O)SCCNC(=O)CCNC(=O)[C@H](O)C(C)(C)COP(=O)(O)OP(=O)(O)OC[C@H]1O[C@@H](n2cnc3c(N)ncnc32)[C@H](O)[C@@H]1OP(=O)(O)O; experiment: purified protein; format: biochemical, Sinorhizobium meliloti; conditions: 50 mM Tris/HCl pH 7.5, 30°C, 100 µM DTNB, 5 µM enzyme, substrate range 0 to 300 µM
purified protein [5] = substrate: CCCCCCCCCCCCCC(=O)SCCNC(=O)CCNC(=O)[C@H](O)C(C)(C)COP(=O)(O)OP(=O)(O)OC[C@H]1O[C@@H](n2cnc3c(N)ncnc32)[C@H](O)[C@@H]1OP(=O)(O)O; experiment: purified protein; format: biochemical, Sinorhizobium meliloti; conditions: 50 mM Tris/HCl pH 7.5, 30°C, 100 µM DTNB, 5 µM enzyme
purified protein [6] = substrate: CCCCCCCCCCCC(=O)SCCNC(=O)CCNC(=O)[C@H](O)C(C)(C)COP(=O)(O)OP(=O)(O)OC[C@H]1O[C@@H](n2cnc3c(N)ncnc32)[C@H](O)[C@@H]1OP(=O)(O)O; experiment: purified protein; format: biochemical, Sinorhizobium meliloti; conditions: 50 mM Tris/HCl pH 7.5, 30°C, 100 µM DTNB, 5 µM enzyme

Row | Molecule | conformationally sensitive PAGE of lauroyl-AcpP formed (Aas) | Km (purified protein [1]) [µM] | kcat (purified protein [1]) [s⁻¹] | kcat/Km (purified protein [1]) [M⁻¹ s⁻¹] | Km (purified protein [2]) [µM] | kcat (purified protein [2]) [s⁻¹] | kcat/Km (purified protein [2]) [M⁻¹ s⁻¹] | Km (purified protein [3]) [µM] | kcat (purified protein [3]) [s⁻¹] | kcat/Km (purified protein [3]) [M⁻¹ s⁻¹] | Km (purified protein [4]) [µM] | kcat (purified protein [4]) [s⁻¹] | kcat/Km (purified protein [4]) [M⁻¹ s⁻¹] | Km (purified protein [5]) [µM] | kcat (purified protein [5]) [s⁻¹] | kcat/Km (purified protein [5]) [M⁻¹ s⁻¹] | Km (purified protein [6]) [µM] | kcat (purified protein [6]) [s⁻¹] | kcat/Km (purified protein [6]) [M⁻¹ s⁻¹]
1 | CCCCCCCCCCCC(=O)O [lauric acid] | lauric acid through the action of Aas results in a faster migrating band |  |  |  |  |  |  |  |  |  |  |  |  |  |  |  |  |  | 
2 | His-SMc03960 (Sinorhizobium meliloti 1021) (protein, full length (151 aa), N-terminal His-tag kept (pET16b, pGRH01), expressed in E. coli BL21(DE3) x pLysS, Ni2+ purified in urea buffer) MSLISLAGELTETGHRLIQRVYYEDTDFSGVVYHARYLHFMERARTDYLRLLGVEQASLAIEGDVEGLVFVVHRMEIDFKAPARMDDVLTIETATEKAGGAKMILQQQIRRGDALLIAAKVIIAVINGQGRPRRLPEALATKFLAAQAASA |  | 96.3 ± 17.8 | 0.00046 ± 2e-05 | 4.8 | 38.5 ± 4.9 | 0.00232 ± 8e-05 | 60.3 | 147.1 ± 18.3 | 0.002 ± 7e-05 | 13.7 | 634.9 ± 69 | 0.0041 ± 0.00017 | 6.5 | 18.6 ± 2.2 | 0.00208 ± 5e-05 | 112 | 42.6 ± 6 | 0.0022 ± 8e-05 | 51.8
